The results in this text go back to patent US20190040375A1.

For assay [1], the target named is gliadin-Rmep digest (mixed gliadins, 250 ug/ml, incubated with Rmep, 57 ug/ml). The assay can be described thus: R5 sandwich ELISA; gliadins 250 ug/ml with Rmep 57 ug/ml, t=0 sample.
For assay [2], the target named is gliadin-subtilisin A digest (mixed gliadins, 250 ug/ml, incubated with subtilisin A, 57 ug/ml). The assay can be described thus: R5 sandwich ELISA; gliadins 250 ug/ml with subtilisin A 57 ug/ml, t=0 sample.
The target is the same in assay [3]. Put plainly: R5 sandwich ELISA; gliadins 250 ug/ml with subtilisin A 57 ug/ml, 15 min. On the technique in general: In an ELISA, binding on a coated surface is turned into a signal by an enzyme label.
For assay [4] the target is unchanged. The assay can be described thus: G12 sandwich ELISA; gliadins 250 ug/ml with subtilisin A 57 ug/ml, 2 h.
For assay [5] the target is unchanged. The assay can be described thus: G12 sandwich ELISA; gliadins 250 ug/ml with subtilisin A 57 ug/ml, t=0 sample.
Assay [6] addresses gliadin-Rmep digest (mixed gliadins, 250 ug/ml, incubated with Rmep, 57 ug/ml). The assay can be described thus: G12 sandwich ELISA; gliadins 250 ug/ml with Rmep 57 ug/ml, 30 min.
Assay [7] has the same target. Put plainly: G12 sandwich ELISA; gliadins 250 ug/ml with Rmep 57 ug/ml, 2 h.

In turn, “R5 monoclonal antibody (… Gliadin, R-Biopharm)” displayed a reduction in antibody binding compared to the control in assay [1] of 46%. Further, the values for the elimination of R5 epitopes (ELISA) in assay [2] and in assay [3] were 90% and 100%, respectively.

For “G12 monoclonal antibody (AgraQuant ELISA Gluten G12, Romer labs)”, the degradation of G12 epitopes (ELISA) in assay [4] stood at 45%; in assay [5], 22%. Besides, the figures for the decrease in antibody binding in assay [6] and in assay [7] were 65% and 85%, respectively.
